Columns and labels:
[1] = confocal IF, colocalisation with calnexin, HEK 293T; conditions: glycan lost; control: wild type
[2] = surface FLAG IF, nonpermeabilized HEK 293T, cadherin marker; conditions: glycan lost; control: wild type

Protein	localisation_or_trafficking [1]	localisation_or_trafficking [2]
SUCNR1/GPR91 (succinate receptor): N8A (protein) parent chain: MLGIMAWNATCKNWLAAEAALEKYYLSIFYGIEFVVGVLGNTIVVYGYIFSLKNWNSSNIYLFNLSVSDLAFLCTLPMLIRSYANGNWIYGDVLCISNRYVLHANLYTSILFLTFISIDRYLIIKYPFREHLLQKKEFAILISLAIWVLVTLELLPILPLINPVITDNGTTCNDFASSGDPNYNLIYSMCLTLLGFLIPLFVMCFFYYKIALFLKQRNRQVATALPLEKPLNLVIMAVVIFSVLFTPYHVMRNVRIASRLGSWKQYQCTQVVINSFYIVTRPLAFLNSVINPVFYFLLGDHFRDMLMNQLRHNFKSLTSFSRWAHELLLSFREK	changes	increases
SUCNR1/GPR91 (succinate receptor): N168A (protein) parent chain: MLGIMAWNATCKNWLAAEAALEKYYLSIFYGIEFVVGVLGNTIVVYGYIFSLKNWNSSNIYLFNLSVSDLAFLCTLPMLIRSYANGNWIYGDVLCISNRYVLHANLYTSILFLTFISIDRYLIIKYPFREHLLQKKEFAILISLAIWVLVTLELLPILPLINPVITDNGTTCNDFASSGDPNYNLIYSMCLTLLGFLIPLFVMCFFYYKIALFLKQRNRQVATALPLEKPLNLVIMAVVIFSVLFTPYHVMRNVRIASRLGSWKQYQCTQVVINSFYIVTRPLAFLNSVINPVFYFLLGDHFRDMLMNQLRHNFKSLTSFSRWAHELLLSFREK	no change	no change
